Test results reported in patent US20250157661.

Test system: Indicator molecule containing the cleavable sequence GPQGIFGQ with a terminal biotin group connected via a polyethylene glycol spacer/linker (intact, Examples 1-6)

Sequence of Active MMP-9 (Alere San Diego) (chain, as listed by the source): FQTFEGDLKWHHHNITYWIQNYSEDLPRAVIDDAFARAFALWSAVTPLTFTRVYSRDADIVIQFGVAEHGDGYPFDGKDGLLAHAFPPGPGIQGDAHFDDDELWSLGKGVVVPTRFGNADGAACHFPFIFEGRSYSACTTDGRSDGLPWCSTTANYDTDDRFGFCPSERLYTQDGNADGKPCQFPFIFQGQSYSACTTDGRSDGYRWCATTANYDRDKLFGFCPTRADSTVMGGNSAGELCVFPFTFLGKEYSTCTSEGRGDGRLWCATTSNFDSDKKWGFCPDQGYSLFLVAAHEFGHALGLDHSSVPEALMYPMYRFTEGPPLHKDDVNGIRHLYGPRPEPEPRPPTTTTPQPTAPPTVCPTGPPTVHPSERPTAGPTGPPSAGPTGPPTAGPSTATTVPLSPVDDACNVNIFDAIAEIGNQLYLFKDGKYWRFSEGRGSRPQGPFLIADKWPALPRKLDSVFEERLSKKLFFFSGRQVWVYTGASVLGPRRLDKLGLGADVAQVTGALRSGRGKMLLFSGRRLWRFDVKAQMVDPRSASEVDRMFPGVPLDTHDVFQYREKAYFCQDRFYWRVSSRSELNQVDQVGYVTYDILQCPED
Sequence of MMP3 (Enzo) (chain, as listed by the source): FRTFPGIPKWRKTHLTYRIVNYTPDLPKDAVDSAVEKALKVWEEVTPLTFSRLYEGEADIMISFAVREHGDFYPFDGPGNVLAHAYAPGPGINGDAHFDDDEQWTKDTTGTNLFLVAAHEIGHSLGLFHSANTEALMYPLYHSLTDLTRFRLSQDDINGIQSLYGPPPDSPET
Sequence of MMP8 (Enzo) (chain, as listed by the source): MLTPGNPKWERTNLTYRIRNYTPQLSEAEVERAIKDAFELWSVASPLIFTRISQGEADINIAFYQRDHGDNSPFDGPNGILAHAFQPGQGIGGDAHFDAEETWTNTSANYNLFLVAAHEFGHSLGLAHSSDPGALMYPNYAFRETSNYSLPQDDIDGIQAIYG
Sequence of MMP9 (Enzo) (chain, as listed by the source): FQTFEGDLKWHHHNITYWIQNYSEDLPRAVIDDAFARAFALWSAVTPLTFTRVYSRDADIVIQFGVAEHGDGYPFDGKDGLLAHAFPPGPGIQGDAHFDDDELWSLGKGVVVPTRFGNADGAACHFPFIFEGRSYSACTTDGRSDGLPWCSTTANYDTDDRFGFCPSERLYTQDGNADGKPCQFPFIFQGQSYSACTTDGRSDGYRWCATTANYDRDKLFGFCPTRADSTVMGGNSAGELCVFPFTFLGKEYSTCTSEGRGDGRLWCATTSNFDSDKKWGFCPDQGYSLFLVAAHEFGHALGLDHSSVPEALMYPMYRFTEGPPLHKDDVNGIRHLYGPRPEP
Sequence of MMP2 (Enzo) (chain, as listed by the source): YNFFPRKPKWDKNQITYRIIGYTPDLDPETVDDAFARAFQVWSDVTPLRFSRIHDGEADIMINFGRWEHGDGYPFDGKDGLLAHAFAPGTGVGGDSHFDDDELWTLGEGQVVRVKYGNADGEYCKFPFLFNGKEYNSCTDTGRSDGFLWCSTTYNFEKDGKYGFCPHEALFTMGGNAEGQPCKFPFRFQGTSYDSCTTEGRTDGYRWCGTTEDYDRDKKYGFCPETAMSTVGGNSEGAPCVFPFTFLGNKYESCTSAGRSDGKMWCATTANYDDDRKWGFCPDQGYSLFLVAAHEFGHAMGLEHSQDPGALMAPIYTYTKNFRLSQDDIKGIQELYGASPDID
Sequence of MMP10 (Enzo) (chain, as listed by the source): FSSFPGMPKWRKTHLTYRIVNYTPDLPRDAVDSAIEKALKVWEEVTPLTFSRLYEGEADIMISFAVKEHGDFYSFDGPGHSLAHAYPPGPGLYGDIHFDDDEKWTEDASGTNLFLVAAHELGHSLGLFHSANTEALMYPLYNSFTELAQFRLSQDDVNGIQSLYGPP

Work on MMP8 (Enzo) yielded a Reader value (lateral flow, CF1522-gold) with MMP at 0.5 ug/ml of 1140 reader units.
Substance MMP3 (Enzo) has a Reader value (lateral flow, CF1522-gold) with MMP at 0.5 ug/ml of 336 reader units.
In the case of MMP2 (Enzo), the Reader value (lateral flow, CF1522-gold) with MMP at 0.5 ug/ml is reported as 1610 reader units.
For MMP10 (Enzo), the Reader value (lateral flow, CF1522-gold) with MMP at 0.5 ug/ml was 444 reader units.
Substance MMP9 (Enzo) has a Reader value (lateral flow, CF1522-gold) with MMP at 0.5 ug/ml of 3840 reader units.
With Active MMP-9 (Alere San Diego) the OD405 (ELISA, streptavidin plate, CF1522-AP) at 0.39 ng/ml MMP9 was 0.14 OD405, the OD405 (ELISA, streptavidin plate, CF1522-AP) at 0.78 ng/ml MMP9 was 0.14 OD405 and the OD405 (ELISA, streptavidin plate, CF1522-AP) at 1.56 ng/ml MMP9 was 0.14 OD405. It also gave an OD405 (ELISA, streptavidin plate, CF1522-AP) at 3.13 ng/ml MMP9 of 0.13 OD405, an OD405 (ELISA, streptavidin plate, CF1522-AP) at 6.25 ng/ml MMP9 of 0.17 OD405 and an OD405 (ELISA, streptavidin plate, CF1522-AP) at 12.50 ng/ml MMP9 of 0.18 OD405. It also gave an OD405 (ELISA, streptavidin plate, CF1522-AP) at 25.00 ng/ml MMP9 of 0.27 OD405, an OD405 (ELISA, streptavidin plate, CF1522-AP) at 50.00 ng/ml MMP9 of 0.5 OD405 and a reader value (lateral flow, CF1522-gold at the polystreptavidin test line) at 0.9765625 ng/ml MMP9 of 338 reader units. The reader value (lateral flow, CF1522-gold at the polystreptavidin test line) at 1.953125 ng/ml MMP9 was 343 reader units, the reader value (lateral flow, CF1522-gold at the polystreptavidin test line) at 3.90625 ng/ml MMP9 was 413 reader units and the reader value (lateral flow, CF1522-gold at the polystreptavidin test line) at 7.8125 ng/ml MMP9 was 524 reader units. The reader value (lateral flow, CF1522-gold at the polystreptavidin test line) at 15.625 ng/ml MMP9 was 882 reader units, the reader value (lateral flow, CF1522-gold at the polystreptavidin test line) at 31.25 ng/ml MMP9 was 2030 reader units and the reader value (lateral flow, CF1522-gold at the polystreptavidin test line) at 62.5 ng/ml MMP9 was 3830 reader units. The reader value (lateral flow, CF1522-gold at the polystreptavidin test line) at 125 ng/ml MMP9 was 5580 reader units, the reader value (lateral flow, CF1522-gold at the polystreptavidin test line) at 250 ng/ml MMP9 was 6220 reader units and the reader value (lateral flow, CF1522-gold at the polystreptavidin test line) at 500 ng/ml MMP9 was 6730 reader units. For the same substance, the reader value (lateral flow, CF1522-gold at the polystreptavidin test line) at 1000 ng/ml MMP9 was 6770 reader units.
